Measurements: the supplement of paper PMC12764529
± gives the half width of the 95% confidence interval.

How the values were obtained:
[1] = folding stability dG unfold from trypsin proteolysis; higher = more stable
How it was run: (§1)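 Designed mini-proteins with no cysteine and under 80 residues were kept only if AlphaFold2 dimer inter-PAE was above 15. In a PA-tagged cDNA display construct, they were digested with trypsin and chymotrypsin and then sequenced. K50 was inferred by Bayesian fitting of counts, and unfolding free energy was derived per protease or combined against a sequence-predicted unfolded-state K50 and a shared folded-state K50.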

[2] = folding stability dG unfold from chymotrypsin proteolysis; higher = more stable
How it was run: as §1

[3] = folding stability dG unfold (combined trypsin and chymotrypsin); higher = more stable
How it was run: as §1

| Sequence | folding stability dG unfold [1] [kcal/mol] | folding stability dG unfold [2] [kcal/mol] | folding stability dG unfold [3] [kcal/mol] |
| --- | --- | --- | --- |
| SAGGSAGGSAGPALRIPFLVERPDGSPFWAEARVYEDGTVELRIYGDEPIATFTFPLDELSAGGSAGGSAGG [r11_327_TrMRF] | 1.55 ± 0.044 | 1.6 ± 0.15 | 1.68 ± 0.15 |
| SAGGSAGGSAGGGMSSAPPVTITPVSETTERLPNGTLVRTTTYAVDDGSTVTTTTVTPVSSAGGSAGGSAGG [r7_948_JUSTAS] | -0.127 ± 0.099 | 0.952 ± 0.069 | 0.602 ± 0.1 |
| SAGGSAKWLPAEELADELADTLMQRHGYEIKNVDVEVIDPDEGYIRVNIEYEHPGGRHKHDIIIPVSAGGSA [r15_32_TrROS] | 0.1 ± 0.18 | 0.851 ± 0.092 | 0.662 ± 0.17 |
| SAGGSAGGSAGMVIEVGGKKVTIEKNEDGSLKITVTDKNGKKKEITIPGMSLEEILKALKSAGGSAGGSAGG [r11_934_TrROS_Hall] | 3.23 ± 0.076 | 2.57 ± 0.036 | 2.9 ± 0.081 |
| SAGGSAGGSAKLVKITFSNGEELVLPADKFSIEAIKSLPVPAKVEVFDVPKSDTNLEDLLKSAGGSAGGSAG [r3_69_TrMRF] | 0.72 ± 0.043 | 2.03 ± 0.022 | 1.66 ± 0.044 |
| SAGGSAMVYLVTVTIKSEGKEVRYKEWVESDEPEKLIEKVKKEYPNEEIKVEITPFPSKEEAEKLLSAGGSA [r15_889_JUSTAS] | 2.36 ± 0.098 | 2.48 ± 0.042 | 2.41 ± 0.096 |
| SMKITEIEPDGDGTLEIEIPVEAPPGMDPDEVQIYVMSDDGIRHVRITPNGTVEITIENIPDIRIYIFVHSA [r9_722_TrROS] | 1.79 ± 0.051 | 2.47 ± 0.073 | 2.26 ± 0.079 |
| SAGGLEILEVDPDTYTITIRFGDRPLEFTVPPDYPPTITITEDPDGSVTLTIEVPDRTETFTIPRELVESAG [r5_500_TrMRF] | 1.18 ± 0.021 | 1.84 ± 0.09 | 1.61 ± 0.083 |
| SAGGSAGGSMTPANVVRIEPSPDGILRVTLTHPDGTVTTVEVSPDNLDIGAPDNVTDVTLAPVSAGGSAGGS [r20_194_TrMRF] | 0.932 ± 0.026 | 1.72 ± 0.023 | 1.44 ± 0.028 |
| SAGGSAGGSAGKLYIIRIKGKKIILSEDEVEKLKKKYPNAEIIPFKSKEDAEKALKKLKESAGGSAGGSAGG [r11_60_TrROS_Hall] | 2.16 ± 0.057 | 2.75 ± 0.079 | 2.52 ± 0.13 |
| SAGGMIKITVTLPDPARVRALFAELGLDVEVTPLPDGSVEIYLPEEYKEKVVEALPEEEVEITPVPPLSAGG [r13_261_JUSTAS] | 2.5 ± 0.13 | 3.05 ± 0.17 | 2.91 ± 0.14 |
| SPLVLNPEGRTLTITLTVTVDPDVDRQVVPVLVVDEGAPRTFTFEVPKGLAGPVTFTLEIDLPPGAYVEVSA [r9_973_TrMRF] | 2.05 ± 0.028 | 2.29 ± 0.066 | 2.18 ± 0.049 |
| SAGGSAMPVEFPSEGVVEAVNPKTGKVYLIRYETGDTKTRFVIFEPGTGEVRVIDEDTTFEEAVEDSAGGSA [r15_234_TrMRF] | 0.802 ± 0.036 | 0.382 ± 0.16 | 0.674 ± 0.088 |
| SAGGSAGGSAAPTNPVEITLKRPDGTPVKATITFYPDGVKVTVEDGDTTTTSWLSPEEITLSAGGSAGGSAG [r3_373_JUSTAS] | 2.09 ± 0.037 | 1.722 ± 0.015 | 1.89 ± 0.03 |
| SAGGSAGGKILVIEIEVDSPEKAVEKAKEIVKELGLPESVKIKEIVFFKEEGDKYRALVLVDLDSAGGSAGG [r6_282_TrMRF] | 3.66 ± 0.23 | 4.09 ± 0.095 | 3.95 ± 0.2 |
| SAGGSAGGPEYQMIPVKNVEIDEFDPNDGNVTIKFKGNGQEIKLPPDGIQSIEISPDQGWIYIRSAGGSAGG [r6_315_TrROS] | -0.318 ± 0.093 | -0.365 ± 0.22 | -0.273 ± 0.12 |

| Sequence | folding stability dG unfold [1] [kcal/mol] | folding stability dG unfold [2] [kcal/mol] | folding stability dG unfold [3] [kcal/mol] |
| --- | --- | --- | --- |
| SAGELKITIAVFRPVEKDENGKEVKVELVEVKTITISKEDLTEEEILKLAEELKKKFPNTVILVTIEPSAGG [r19_369_TrROS_Hall] | 2.59 ± 0.23 | 2.93 ± 0.19 | 2.91 ± 0.19 |
| SAKKVEVKKIKVEVTFYDKNGKKVKKKKATITVVKVDGKYYVTIYDENTGKKYVFEFPSLEEAKKALKKSAG [r14_508_TrROS_Hall] | 1.91 ± 0.11 | 3.09 ± 0.044 | 2.77 ± 0.33 |
| SAGGMTPSVLSNLSEEERKEAVRDFIIEFIKKAFPNVPEDFSVEEVPVLVYDLKTGKLFEVTVHLEGKSAGG [r13_555_TrMRF] | 1.19 ± 0.083 | 2.16 ± 0.1 | 1.73 ± 0.15 |
| SMYVIETSANKTYTVNVPPDGLVTITYPDGSTETRKFTSEEDLEAFAEELSKKYPDAPATIKPVPLEELGSA [r9_1206_JUSTAS] | 1.21 ± 0.11 | 0.473 ± 0.26 | 0.959 ± 0.25 |
| SAGGSAGGSAGLAEKLRDEIRESIKGPDGLEVPDDVELLSIDVPEDSAFVEVRFPADLPVSAGGSAGGSAGG [r17_519_TrMRF] | 0.436 ± 0.025 | 0.233 ± 0.02 | 0.363 ± 0.089 |
| SAKLEIELNGYKIVSVEVNEDGTVKMKIEVDGKLYELTLKVKLPPPKVEVKEEKKEVKEVKFVKEGEEKSAG [r14_218_TrROS_Hall] | 1.18 ± 0.096 | 2.15 ± 0.094 | 2.05 ± 0.3 |
| SAGGSAGGSAGKLKIKKVKVVKTETFTLPNGYTIKVSYVEVEVDGKKYLFKSVEIYPKKESAGGSAGGSAGG [r11_129_TrROS_Hall] | 2.02 ± 0.1 | 3.09 ± 0.033 | 2.85 ± 0.15 |
| SAGGSAGGSAGGTAEEIKEAIEELGYKVEVEVTDDAVKIRLELPNGEKFEFEIPKEALESAGGSAGGSAGGS [r10_1029_TrMRF] | 2.3 ± 0.22 | 1.92 ± 0.11 | 1.99 ± 0.16 |
| SAGGSLSNVTPLGTTPVTLPGSTVTITVYKSDTPGVVYVKIEYPETGVEKVRVLSPEELEKVIEELLSAGGS [r8_469_JUSTAS] | 2.69 ± 0.071 | 3.199 ± 0.025 | 3.07 ± 0.054 |
| SAGGMKINPKVFGNYVLVEVENPETGSRILKLVEFNPGPKTATVKVFYIDPNGKPTLLEEKTFSLPDLSAGG [r13_768_TrMRF] | 1.36 ± 0.018 | 2.736 ± 0.025 | 2.32 ± 0.071 |
| SAGGSAGGSAGGEKIIKVHPDNIEAFLKEAKEKGYKVILFPNGEAIVNGKKVKIISDPKSAGGSAGGSAGGS [r10_930_TrMRF] | 1.36 ± 0.12 | 1.73 ± 0.074 | 1.74 ± 0.18 |
| SMVTVERPESTKTIDAPPSATVEFDPATGTLRVYSPDGTATTVPLSPTWSIQPSDNSVTVTAPPASPAAPSA [r9_653_JUSTAS] | 0.056 ± 0.059 | 0.669 ± 0.1 | 0.421 ± 0.066 |
| SAGGSAGGDTLTIVVEGMSAEELAALLKELFPDAEVTVTEVGEPRLVTVTVTVKVETEFELPEESAGGSAGG [r6_607_TrROS_Hall] | 2.13 ± 0.099 | 2.36 ± 0.087 | 2.28 ± 0.1 |
| SAGPVVVDPNGKLLPLKVKAVFVIDPELLEEKAKESDNSLEKAIRDLVKELEAELKAKGYDVEVEGIGSAGG [r19_305_TrMRF] | 1.12 ± 0.067 | 1.97 ± 0.049 | 1.68 ± 0.061 |
| SAGGSAGGSKPVLKITVTNEKGEKQTISLDELQAETGLSAEEIAARLAALLPPGAKITIEPVPSAGGSAGGS [r12_399_TrROS_Hall] | 1.81 ± 0.024 | 2.11 ± 0.023 | 1.98 ± 0.048 |
